Measurements from US20170355775A1 (ELANCO TIERGESUNDHEIT, published 2017).
Substitutions are numbered along the chain they refer to. Numbers in names are those of the source.

Legend:
[1] = target: T1, canine CD20 ECD2-mFc fusion protein (canine); assay: ELISA, antigen coated at 200 ng/well, antibody 5 ug/ml
T1 construct: also called cCD20 ECD2-mFc
T1 chain: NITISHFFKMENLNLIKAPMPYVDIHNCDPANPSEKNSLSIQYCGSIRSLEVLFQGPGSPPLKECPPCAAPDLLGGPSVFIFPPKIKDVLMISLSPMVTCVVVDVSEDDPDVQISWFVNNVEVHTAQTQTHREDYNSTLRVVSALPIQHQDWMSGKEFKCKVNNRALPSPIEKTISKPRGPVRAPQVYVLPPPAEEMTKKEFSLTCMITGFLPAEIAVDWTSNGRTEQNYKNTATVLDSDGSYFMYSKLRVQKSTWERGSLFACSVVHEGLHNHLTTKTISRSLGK
Protocol: (§1) This strategy- enabled identification of the specific sequences in canine CD20 that each mAb binds. Binding was tested using a standard ELISA protocol. Briefly, recombinant canine CD20 ECD2-mFc fusion protein and human/canine hybrid variants thereof were diluted in PBS and bound to a 96-well microtiter plate at 200 ng/well by overnight incubation at 4° C. The plate was rinsed three times with PBST buffer, blocked with a solution of 3% BSA in PBS for one hour at 37° C., then rinsed once with PBST. Mouse monoclonal antibodies 1E4, 1G1, and 1G10 were diluted to a concentration of 5 μg/ml in PBS and 50 μl of this dilution was applied to the plate for 1 hour at room temperature. The plate was then rinsed three times with PBST, and Jackson Immunoresearch goat anti-mouse-IgG light chain-specific HRP conjugate (#115-035-174) diluted to 1:5000 in PBS (50 μL) was added to each well, and the plate was incubated for 45 min at room temperature. The plate was washed three times with PBST, then 100 μl of SureBlueTMB substrate (KPL #52-00-03) was added to each well and the plate was incubated for about 10 min at room temperature. The plate was read at 650 nm in a spectrophotometer.

[2] = target: T2, Hum-Can CD20 ECD2 V3 (mFc fusion) (human/canine hybrid); assay: as above
T2 construct: Described as a hybrid version of the original immunogen CD20 ECD2-mFc
T2 chain: T1 chain with L39P, I41T, G45Y
Protocol: as §1

[3] = target: T3, canine CD20 on canine B cells / B cell lymphoma cells (canine, UniProt Q3C2E2 1-297); assay: FACS on canine B cell lymphoma cells expressing canine CD20
T3 construct: whole, on cells; Endogenous CD20 on canine cells
T3 sequence (looked up): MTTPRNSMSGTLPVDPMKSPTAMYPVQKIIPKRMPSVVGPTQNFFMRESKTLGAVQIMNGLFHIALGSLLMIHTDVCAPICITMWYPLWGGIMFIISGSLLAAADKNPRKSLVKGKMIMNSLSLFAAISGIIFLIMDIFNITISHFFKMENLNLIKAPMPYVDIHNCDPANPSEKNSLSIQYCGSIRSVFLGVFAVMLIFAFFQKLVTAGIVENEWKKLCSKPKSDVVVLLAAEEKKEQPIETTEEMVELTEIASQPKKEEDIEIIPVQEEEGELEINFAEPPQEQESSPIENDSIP
Protocol: The relative affinities of the mouse monoclonal antibodies 1E4, 1G1, and 1G10 for binding to canine CD20 was determined by fluorescent activated cell sorting (FACS) using canine B cell lymphoma cells, which express canine CD20.

canine CD20 ECD2 peptide [4] = target: T4, canine CD20 ECD2 peptide (canine); assay: ELISA on canine CD20 ECD2 peptide
T4 peptide: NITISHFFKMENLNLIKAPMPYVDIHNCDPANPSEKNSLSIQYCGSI

canine CD20 ECD2 peptide [5] = target: T4, canine CD20 ECD2 peptide; assay: ELISA on canine CD20 ECD2 peptide (FIG. 5)

B1: mouse monoclonal antibody 1G10 (antibody, V domains shown)
VH: EVQLQQSGPELVKPGASVKISCKASGYTFTDYYMNWVKQSHGKSLEWIGDINPNNGDTSYNQKFKGKAPLTVDKSSSTAYMEVRSLTSEDSAVYFCARGGVLRYPYYYVMDYWGQGTSVTVSS
VL: DIVMTQAAPSVPVTPGESVSISCRSNKSLLHRNGNTYLYWFLQRPGQSPQLLIYRMSNLASGVPDRFSGSGSGTAFTLRISRVEAEDVGVYYCMQHLEFPFTFGGGTKLEIK
notes: Mouse monoclonal antibody from a hybridoma; also called hybridoma antibody 1G10
With B1 the binding result [1] was “binds”, the binding result [2] was “binds” and the Kd [3] was 0.29 nM.

B2: chimeric anti-canine CD20 antibody 1E4-cIgGB (antibody, V domains shown)
VH: EVQLVESGGGLVKPGGSLKLSCAASGFTFSDYGMLWVRQAPEKGLEWIAYISSGSSTIYYADRVKGRFTISRDNAKNTLFLQMTSLRSEDTAMYYCSTGTFAYWGQGTPVTVSS
VL: DVVMTQNPLSLPVSLGDQASISCRSSQSLIYNNGNTYLHWYRQKPGQSPKLLIYKVSNRFSGVPDRFSGSGSGTDFTLKISRVEAEDLGVYFCSQSTHVPFTFGSGTKLEIKR
notes: also called unmodified (WT) 1E4-cIgGB; 1E4-cIGB
B2: binds (canine CD20 ECD2 peptide [4]).

B3: mouse monoclonal antibody 1E4 (antibody, V domains shown)
VH: B2 VH
VL: DVVMTQNPLSLPVSLGDQASISCRSSQSLIYNNGNTYLHWYRQKPGQSPKLLIYKVSNRFSGVPDRFSGSGSGTDFTLKISRVEAEDLGVYFCSQSTHVPFTFGSGTKLEIK
notes: Mouse monoclonal antibody from a hybridoma; also called 1E4-mAb; hybridoma antibody 1E4
For B3, the binding result [1] was “binds”, the binding result [2] was “binds” and the Kd [3] was 0.97 nM.

B4: 1E4-cIgGB with N33 to H substitution in VL (antibody, V domains shown)
VH: B2 VH
VL: B2 VL with N33H
notes: Whole antibody (heavy plus light chains) made 'using the above procedures'
B4: binds (canine CD20 ECD2 peptide [4]).

B5: 1E4-cIgGB with N33 to V substitution in VL (antibody, V domains shown)
VH: B2 VH
VL: B2 VL with N33V
notes: as for B4
B5: binds (canine CD20 ECD2 peptide [4]).

B6: 1E4-cIgGB with N33 to L substitution in VL (antibody, V domains shown)
VH: B2 VH
VL: B2 VL with N33L
notes: as for B4
B6: binds (canine CD20 ECD2 peptide [4]).

B7: 1E4-cIgGB with N33 to I substitution in VL (antibody, V domains shown)
VH: B2 VH
VL: B2 VL with N33I
notes: as for B4
B7: binds (canine CD20 ECD2 peptide [4]).

B8: 1E4-cIgGB with G34 to L substitution in VL (antibody, V domains shown)
VH: B2 VH
VL: B2 VL with G34L
notes: as for B4
B8: binds (canine CD20 ECD2 peptide [4]).

B9: 1E4-cIgGB with N33 to F substitution in VL (antibody, V domains shown)
VH: B2 VH
VL: B2 VL with N33F
notes: as for B4
B9: binds (canine CD20 ECD2 peptide [4]).

B10: 1E4-cIgGB with N33 to Y substitution in VL (antibody, V domains shown)
VH: B2 VH
VL: B2 VL with N33Y
notes: as for B4
B10: binds (canine CD20 ECD2 peptide [4]).

B11: 1E4-cIgGB with N33 to Q substitution in VL (antibody, V domains shown)
VH: B2 VH
VL: B2 VL with N33Q
notes: as for B4
B11: binds (canine CD20 ECD2 peptide [4]).

B12: 1E4-cIgGB with G34 to V substitution in VL (antibody, V domains shown)
VH: B2 VH
VL: B2 VL with G34V
notes: as for B4
B12: binds (canine CD20 ECD2 peptide [4]).

B13: 1E4-cIgGB with G34 to F substitution in VL (antibody, V domains shown)
VH: B2 VH
VL: B2 VL with G34F
notes: as for B4
B13: binds (canine CD20 ECD2 peptide [4]).

B14: 1E4-cIgGB with G34 to Q substitution in VL (antibody, V domains shown)
VH: B2 VH
VL: B2 VL with G34Q
notes: also called G34Q
B14: binds (canine CD20 ECD2 peptide [5]).

B15: 1E4-cIgGB with G34 to R substitution in VL (antibody, V domains shown)
VH: B2 VH
VL: B2 VL with G34R
notes: as for B4
B15: binds (canine CD20 ECD2 peptide [4]).

B16: 1E4-cIgGB with N33 to E substitution in VL (antibody, V domains shown)
VH: B2 VH
VL: B2 VL with N33E
notes: as for B4
B16: binds (canine CD20 ECD2 peptide [4]).

B17: 1E4-cIgGB with G34 to K substitution in VL (antibody, V domains shown)
VH: B2 VH
VL: B2 VL with G34K
notes: also called G34K
B17: binds (canine CD20 ECD2 peptide [5]).

B18: 1E4-cIgGB with G34 to H substitution in VL (antibody, V domains shown)
VH: B2 VH
VL: B2 VL with G34H
notes: as for B4
B18: binds (canine CD20 ECD2 peptide [4]).

B19: 1E4-cIgGB with G34 to A substitution in VL (antibody, V domains shown)
VH: B2 VH
VL: B2 VL with G34A
notes: also called G34A
B19: binds (canine CD20 ECD2 peptide [5]).

B20: 1E4-cIgGB with N33 to A substitution in VL (antibody, V domains shown)
VH: B2 VH
VL: B2 VL with N33A
notes: as for B4
B20: binds (canine CD20 ECD2 peptide [4]).

B21: 1E4-cIgGB with N33 to K substitution in VL (antibody, V domains shown)
VH: B2 VH
VL: B2 VL with N33K
notes: also called N33K
B21: binds (canine CD20 ECD2 peptide [5]).

B22: 1E4-cIgGB with G34 to I substitution in VL (antibody, V domains shown)
VH: B2 VH
VL: B2 VL with G34I
notes: as for B4
B22: binds (canine CD20 ECD2 peptide [4]).

B23: 1E4-cIgGB with N33 to T substitution in VL (antibody, V domains shown)
VH: B2 VH
VL: B2 VL with N33T
notes: as for B4
B23: binds (canine CD20 ECD2 peptide [4]).

B24: 1E4-cIgGB with N33 to P substitution in VL (antibody, V domains shown)
VH: B2 VH
VL: B2 VL with N33P
notes: as for B4
B24: binds (canine CD20 ECD2 peptide [4]).

B25: 1E4-cIgGB with G34 to P substitution in VL (antibody, V domains shown)
VH: B2 VH
VL: B2 VL with G34P
notes: as for B4
B25: binds (canine CD20 ECD2 peptide [4]).

B26: 1E4-cIgGB with G34 to E substitution in VL (antibody, V domains shown)
VH: B2 VH
VL: B2 VL with G34E
notes: as for B4
B26: binds (canine CD20 ECD2 peptide [4]).

B27: 1E4-cIgGB with N33 to R substitution in VL (antibody, V domains shown)
VH: B2 VH
VL: B2 VL with N33R
notes: as for B4
B27: binds (canine CD20 ECD2 peptide [4]).

B28: 1E4-cIgGB with G34 to Y substitution in VL (antibody, V domains shown)
VH: B2 VH
VL: B2 VL with G34Y
notes: as for B4
B28: binds (canine CD20 ECD2 peptide [4]).
